Source: IntAct's records for PubMed 31515488

B1: Scaffold protein ILK (Homo sapiens), Q13418 (parent)
chain: MDDIFTQCREGNAVAVRLWLDNTENDLNQGDDHGFSPLHWACREGRSAVVEMLIMRGARINVMNRGDDTPLHLAASHGHRDIVQKLLQYKADINAVNEHGNVPLHYACFWGQDQVAEDLVANGALVSICNKYGEMPVDKAKAPLRELLRERAEKMGQNLNRIPYKDTFWKGTTRTRPRNGTLNKHSGIDFKQLNFLTKLNENHSGELWKGRWQGNDIVVKVLKVRDWSTRKSRDFNEECPRLRIFSHPNVLPVLGACQSPPAPHPTLITHWMPYGSLYNVLHEGTNFVVDQSQAVKFALDMARGMAFLHTLEPLIPRHALNSRSVMIDEDMTARISMADVKFSFQCPGRMYAPAWVAPEALQKKPEDTNRRSADMWSFAVLLWELVTREVPFADLSNMEIGMKVALEGLRPTIPPGISPHVCKLMKICMNEDPAKRPKFDMIVPILEKMQDK
partner: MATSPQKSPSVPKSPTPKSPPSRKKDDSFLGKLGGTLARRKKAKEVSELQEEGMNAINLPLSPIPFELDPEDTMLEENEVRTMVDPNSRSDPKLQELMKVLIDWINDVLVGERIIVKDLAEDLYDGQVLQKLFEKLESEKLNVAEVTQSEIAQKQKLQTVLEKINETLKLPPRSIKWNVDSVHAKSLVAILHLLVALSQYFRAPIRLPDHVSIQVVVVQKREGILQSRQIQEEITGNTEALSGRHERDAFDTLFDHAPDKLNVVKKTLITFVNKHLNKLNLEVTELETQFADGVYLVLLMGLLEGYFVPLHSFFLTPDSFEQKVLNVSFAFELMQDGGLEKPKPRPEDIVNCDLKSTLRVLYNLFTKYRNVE
B2: Cyclin-H (Homo sapiens), P51946 (parent)
chain: MYHNSSQKRHWTFSSEEQLARLRADANRKFRCKAVANGKVLPNDPVFLEPHEEMTLCKYYEKRLLEFCSVFKPAMPRSVVGTACMYFKRFYLNNSVMEYHPRIIMLTCAFLACKVDEFNVSSPQFVGNLRESPLGQEKALEQILEYELLLIQQLNFHLIVHNPYRPFEGFLIDLKTRYPILENPEILRKTADDFLNRIALTDAYLLYTPSQIALTAILSSASRAGITMESYLSESLMLKENRTCLSQLLDIMKSMRNLVKKYEPPRSEEVAVLKQKLERCHSAELALNVITKKRKGYEDDDYVSKKSKHEEEEWTDDDLVESL
B3: Syntenin-2 (Homo sapiens), Q9H190 (parent)
chain: MSSLYPSLEDLKVDQAIQAQVRASPKMPALPVQATAISPPPVLYPNLAELENYMGLSLSSQEVQESLLQIPEGDSTAVSGPGPGQMVAPVTGYSLGVRRAEIKPGVREIHLCKDERGKTGLRLRKVDQGLFVQLVQANTPASLVGLRFGDQLLQIDGRDCAGWSSHKAHQVVKKASGDKIVVVVRDRPFQRTVTMHKDSMGHVGFVIKKGKIVSLVKGSSAARNGLLTNHYVCEVDGQNVIGLKDKKIMEILATAGNVVTLTIIPSVIYEHMVKKLPPVLLHHTMDHSIPDA
partner: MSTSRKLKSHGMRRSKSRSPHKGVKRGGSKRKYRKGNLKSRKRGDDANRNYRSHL
B4: Vesicle transport through interaction with t-SNAREs homolog 1B (Homo sapiens), Q9UEU0 (parent)
chain: MASSAASSEHFEKLHEIFRGLHEDLQGVPERLLGTAGTEEKKKLIRDFDEKQQEANETLAEMEEELRYAPLSFRNPMMSKLRNYRKDLAKLHREVRSTPLTATPGGRGDMKYGIYAVENEHMNRLQSQRAMLLQGTESLNRATQSIERSHRIATETDQIGSEIIEELGEQRDQLERTKSRLVNTSENLSKSRKILRSMSRKVTTNKLLLSIIILLELAILGGLVYYKFFRSH
partner: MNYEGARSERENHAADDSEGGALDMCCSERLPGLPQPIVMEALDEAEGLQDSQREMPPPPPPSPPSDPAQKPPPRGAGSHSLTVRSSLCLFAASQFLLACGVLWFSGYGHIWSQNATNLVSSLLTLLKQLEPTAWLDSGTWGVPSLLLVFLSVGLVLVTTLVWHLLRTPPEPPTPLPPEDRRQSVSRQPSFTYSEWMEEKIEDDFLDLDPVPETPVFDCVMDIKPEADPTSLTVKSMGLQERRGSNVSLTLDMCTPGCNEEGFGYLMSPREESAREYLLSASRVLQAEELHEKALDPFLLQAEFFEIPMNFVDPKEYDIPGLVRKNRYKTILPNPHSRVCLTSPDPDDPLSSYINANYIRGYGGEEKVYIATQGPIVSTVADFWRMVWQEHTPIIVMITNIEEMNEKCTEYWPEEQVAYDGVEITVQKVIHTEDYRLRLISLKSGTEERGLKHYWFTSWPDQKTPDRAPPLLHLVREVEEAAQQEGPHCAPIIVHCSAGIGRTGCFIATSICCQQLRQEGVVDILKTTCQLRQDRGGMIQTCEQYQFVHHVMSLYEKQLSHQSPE
B5: IQ motif and ubiquitin-like domain-containing protein (Homo sapiens), Q8NA54 (parent)
chain: MSNQQEKYEAQNIVNSTEESDDAFDTVTIPVPSEEPQESDQTEEHESGIEQFSESHAIHVEEQSDQSFSSLEPDNEQLMEEVISPRQVSYTPQHHEKQYAMQRPNDDSLAFLDKIKSVKESLQESVEDSLATVKVVLIPVGQEIVIPFKVDTILKYLKDHFSHLLGIPHSVLQIRYSGKILKNNETLVQHGVKPQEIVQVEIFSTNPDLYPVRRIDGLTDVSQIITVTVQTGLDQYQQVPVEIVKSDFHKPFLGGFRHKVTGVEYHNAGTQTVPKRIPERLSIFCRDTQTVFQKKNLQQTTNTTSTQMTNIGVYVSNMTDKLVTPGKYFSAAEYHAQRLKAVIVIQTYYRQWHAKIFVENLRRQKSLRLEWETQQELRKIREKEEWIKLDYHRRHNPKTNEDFEFLYNALEFWRQEELTRINQSFTGAERKAALCELLEKETQIIASIGRHRYIAYMANQEAAIQAFLDKCSAPKIWRTPNGKTIEMDTQFTIRARELQNIYKCIMLKNISQDERLDVLLTLKHTVKEHECKLTQEILELIDREVDLMMRGVKHHNLEGLRKRIATLFFHYIKTPLFNPEVAKYLKVPQDPLKFYKKIYFCHSCQLYLPSTEFSVSSTSRRIYRCRNCINLQNEAQKRESFLKYKCLLQQLYYTEADYEDDSKIAFLMQLQDIQYLTENIWASQSVLSACDNLSDLVMVRWNKSLEWSPWNCILLTKDEAAAHLKLTSIEEGYERSFIHKIKHKHILAKNYFSQVPVLASFILDDGEIDEIRWKYHSDTTPKIIESQRPPH
partner: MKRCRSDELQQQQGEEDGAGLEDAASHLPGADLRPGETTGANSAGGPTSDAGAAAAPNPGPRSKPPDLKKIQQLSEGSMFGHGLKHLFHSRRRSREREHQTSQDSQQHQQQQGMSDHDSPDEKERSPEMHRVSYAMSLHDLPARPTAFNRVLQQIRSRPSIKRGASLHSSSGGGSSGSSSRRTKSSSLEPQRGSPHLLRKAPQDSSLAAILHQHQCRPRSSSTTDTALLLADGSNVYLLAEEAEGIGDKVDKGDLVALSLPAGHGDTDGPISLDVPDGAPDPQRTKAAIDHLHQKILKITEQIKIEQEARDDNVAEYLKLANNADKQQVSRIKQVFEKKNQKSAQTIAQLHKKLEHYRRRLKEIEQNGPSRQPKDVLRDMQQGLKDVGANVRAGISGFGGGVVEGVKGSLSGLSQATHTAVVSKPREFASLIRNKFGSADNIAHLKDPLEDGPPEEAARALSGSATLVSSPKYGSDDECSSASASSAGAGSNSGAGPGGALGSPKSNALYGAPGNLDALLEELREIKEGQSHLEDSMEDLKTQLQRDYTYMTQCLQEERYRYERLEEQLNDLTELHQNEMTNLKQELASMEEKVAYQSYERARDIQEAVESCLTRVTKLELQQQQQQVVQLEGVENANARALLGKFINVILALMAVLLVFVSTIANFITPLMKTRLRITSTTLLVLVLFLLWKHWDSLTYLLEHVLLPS
B6: Protein BANP (Homo sapiens), Q8N9N5-2 (parent)
chain: MMSEHDLADVVQIAVEDLSPDHPVVLENHVVTDEDEPALKRQRLEINCQDPSIKSFLYSINQTICLRLDSIEAKLQALEATCKSLEEKLDLVTNKQHSPIQVPMVAGSPLGATQTCNKVRCAVPGRRQNTIVVKVPGQEDSHHEDGESGSEASDSVSSCGQAGSQSIGSNVTLITLNSEEDYPNGTWLGDENNPEMRVRCAIIPSDMLHISTNCRTAEKMALTLLDYLFHREVQAVSNLSGQGKHGKKQLDPLTIYGIRCHLFYKFGITESDWYRIKQSIDSKCRTAWRRKQRGQSLAVKSFSRRTPNSSSYCPSEPMMSTPPPASELPQPQPQPQALHYALANAQQVQIHQIGEDGQVQVIPQGHLHIAQVPQGEQVQITQDSEGNLQIHHVGQDGQVLQGAQLIAVASSDPAAAGVDGSPLQGSDIQVQYVQLAPVSDHTAGAQTAEALQPTLQPEMQLEHGAIQIQ
B7: PHD finger protein 1 (Homo sapiens), O43189 (parent)
chain: MAQPPRLSRSGASSLWDPASPAPTSGPRPRLWEGQDVLARWTDGLLYLGTIKKVDSAREVCLVQFEDDSQFLVLWKDISPAALPGEELLCCVCRSETVVPGNRLVSCEKCRHAYHQDCHVPRAPAPGEGEGTSWVCRQCVFAIATKRGGALKKGPYARAMLGMKLSLPYGLKGLDWDAGHLSNRQQSYCYCGGPGEWNLKMLQCRSCLQWFHEACTQCLSKPLLYGDRFYEFECCVCRGGPEKVRRLQLRWVDVAHLVLYHLSVCCKKKYFDFDREILPFTSENWDSLLLGELSDTPKGERSSRLLSALNSHKDRFISGREIKKRKCLFGLHARMPPPVEPPTGDGALTSFPSGQGPGGGVSRPLGKRRRPEPEPLRRRQKGKVEELGPPSAVRNQPEPQEQRERAHLQRALQASVSPPSPSPNQSYQGSSGYNFRPTDARCLPSSPIRMFASFHPSASTAGTSGDSGPPDRSPLELHIGFPTDIPKSAPHSMTASSSSVSSPSPGLPRRSAPPSPLCRSLSPGTGGGVRGGVGYLSRGDPVRVLARRVRPDGSVQYLVEWGGGGIF
B8: Ribose-phosphate pyrophosphokinase 1 (Homo sapiens), P60891 (parent)
chain: MPNIKIFSGSSHQDLSQKIADRLGLELGKVVTKKFSNQETCVEIGESVRGEDVYIVQSGCGEINDNLMELLIMINACKIASASRVTAVIPCFPYARQDKKDKSRAPISAKLVANMLSVAGADHIITMDLHASQIQGFFDIPVDNLYAEPAVLKWIRENISEWRNCTIVSPDAGGAKRVTSIADRLNVDFALIHKERKKANEVDRMVLVGDVKDRVAILVDDMADTCGTICHAADKLLSAGATRVYAILTHGIFSGPAISRINNACFEAVVVTNTIPQEDKMKHCSKIQVIDISMILAEAIRRTHNGESVSYLFSHVPL

Variants of: B1
Details: with parva_human PARVA

| Variant | effect of a mutation on the interaction |
| --- | --- |
| L314H | with no effect |

Variants of: B2
Details: with klc3_human KLC3, Q6P597
klc3_human KLC3, Q6P597, sequence (Q6P597 whole entry): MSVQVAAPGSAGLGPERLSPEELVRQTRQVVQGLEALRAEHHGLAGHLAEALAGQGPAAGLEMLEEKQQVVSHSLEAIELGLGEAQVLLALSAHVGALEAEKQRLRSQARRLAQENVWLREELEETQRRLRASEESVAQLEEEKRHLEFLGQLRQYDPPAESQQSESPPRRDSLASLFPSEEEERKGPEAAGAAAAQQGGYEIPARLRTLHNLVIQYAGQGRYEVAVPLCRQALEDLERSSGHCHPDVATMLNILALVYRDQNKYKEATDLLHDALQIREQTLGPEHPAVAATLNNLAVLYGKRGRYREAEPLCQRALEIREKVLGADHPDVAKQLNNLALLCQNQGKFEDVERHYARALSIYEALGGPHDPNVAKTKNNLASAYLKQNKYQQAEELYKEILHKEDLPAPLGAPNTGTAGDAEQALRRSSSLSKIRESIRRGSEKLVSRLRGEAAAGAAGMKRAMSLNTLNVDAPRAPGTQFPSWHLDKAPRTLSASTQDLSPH

| Variant | effect of a mutation on the interaction |
| --- | --- |
| N155T | disrupting interaction strength |

Variants of: B2
Details: with lipa1_human PPFIA1, Q13136
lipa1_human PPFIA1, Q13136, sequence (Q13136 whole entry): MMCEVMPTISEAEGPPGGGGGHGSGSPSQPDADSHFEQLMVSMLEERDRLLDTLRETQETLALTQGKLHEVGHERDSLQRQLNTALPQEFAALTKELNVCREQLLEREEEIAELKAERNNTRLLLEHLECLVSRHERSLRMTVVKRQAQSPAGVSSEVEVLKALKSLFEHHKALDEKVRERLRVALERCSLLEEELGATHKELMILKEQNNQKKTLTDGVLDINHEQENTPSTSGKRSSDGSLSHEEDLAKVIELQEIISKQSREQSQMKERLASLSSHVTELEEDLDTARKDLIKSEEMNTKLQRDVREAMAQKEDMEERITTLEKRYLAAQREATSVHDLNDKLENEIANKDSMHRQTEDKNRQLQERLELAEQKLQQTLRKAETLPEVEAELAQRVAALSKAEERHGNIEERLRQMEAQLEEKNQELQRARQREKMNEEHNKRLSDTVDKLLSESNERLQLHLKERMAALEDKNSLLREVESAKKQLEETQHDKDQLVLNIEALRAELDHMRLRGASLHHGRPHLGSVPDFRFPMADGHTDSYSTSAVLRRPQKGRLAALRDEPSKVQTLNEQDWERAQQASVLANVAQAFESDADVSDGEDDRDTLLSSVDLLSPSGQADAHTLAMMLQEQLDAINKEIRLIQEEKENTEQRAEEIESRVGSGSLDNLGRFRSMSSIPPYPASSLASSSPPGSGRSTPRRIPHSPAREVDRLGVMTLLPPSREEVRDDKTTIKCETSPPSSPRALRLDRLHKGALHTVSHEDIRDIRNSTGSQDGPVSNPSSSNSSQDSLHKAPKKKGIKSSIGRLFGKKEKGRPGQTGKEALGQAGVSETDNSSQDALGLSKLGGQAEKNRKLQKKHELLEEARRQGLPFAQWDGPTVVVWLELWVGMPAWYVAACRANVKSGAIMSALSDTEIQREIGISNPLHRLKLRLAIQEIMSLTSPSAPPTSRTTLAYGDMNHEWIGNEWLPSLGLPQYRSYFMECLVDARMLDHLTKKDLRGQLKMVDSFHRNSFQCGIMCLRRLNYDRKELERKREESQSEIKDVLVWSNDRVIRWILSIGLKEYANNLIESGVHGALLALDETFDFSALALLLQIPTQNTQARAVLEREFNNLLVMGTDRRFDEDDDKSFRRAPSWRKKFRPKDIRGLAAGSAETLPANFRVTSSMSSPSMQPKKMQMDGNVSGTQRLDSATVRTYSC

| Variant | effect of a mutation on the interaction |
| --- | --- |
| N155T | disrupting interaction strength |

Variants of: B2
Details: with dus12_human DUSP12, Q9UNI6
dus12_human DUSP12, Q9UNI6, sequence (Q9UNI6 whole entry): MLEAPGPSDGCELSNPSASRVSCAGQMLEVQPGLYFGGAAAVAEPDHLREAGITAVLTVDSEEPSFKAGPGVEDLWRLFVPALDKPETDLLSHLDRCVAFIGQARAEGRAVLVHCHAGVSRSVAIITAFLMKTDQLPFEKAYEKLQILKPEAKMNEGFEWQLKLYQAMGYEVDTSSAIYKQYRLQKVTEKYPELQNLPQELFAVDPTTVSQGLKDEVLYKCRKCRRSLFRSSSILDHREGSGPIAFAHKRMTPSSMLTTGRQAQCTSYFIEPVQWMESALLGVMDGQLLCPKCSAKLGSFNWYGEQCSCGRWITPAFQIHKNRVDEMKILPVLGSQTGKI

| Variant | effect of a mutation on the interaction |
| --- | --- |
| N155T | disrupting interaction strength |

Variants of: B3
Details: with stp1_human TNP1, P09430

| Variant | effect of a mutation on the interaction |
| --- | --- |
| G225R | disrupting interaction strength |
| V182M | disrupting interaction strength |
| G242R | disrupting interaction strength |

Variants of: B4
Details: with ptn5_human PTPN5, P54829

| Variant | effect of a mutation on the interaction |
| --- | --- |
| R124Q | with no effect |
| R176H | with no effect |

Variants of: B5
Details: with tmcc2_human TMCC2, O75069

| Variant | effect of a mutation on the interaction |
| --- | --- |
| I501F | disrupting interaction strength |
| V126M | with no effect |

Variants of: B6
Details: with kcc2d_human CAMK2D

| Variant | effect of a mutation on the interaction |
| --- | --- |
| A162V | with no effect |

Variants of: B6
Details: with FAM117B

| Variant | effect of a mutation on the interaction |
| --- | --- |
| A162V | with no effect |

Variants of: B6
Details: with aakb2_human PRKAB2, O43741
aakb2_human PRKAB2, O43741, sequence (O43741 whole entry): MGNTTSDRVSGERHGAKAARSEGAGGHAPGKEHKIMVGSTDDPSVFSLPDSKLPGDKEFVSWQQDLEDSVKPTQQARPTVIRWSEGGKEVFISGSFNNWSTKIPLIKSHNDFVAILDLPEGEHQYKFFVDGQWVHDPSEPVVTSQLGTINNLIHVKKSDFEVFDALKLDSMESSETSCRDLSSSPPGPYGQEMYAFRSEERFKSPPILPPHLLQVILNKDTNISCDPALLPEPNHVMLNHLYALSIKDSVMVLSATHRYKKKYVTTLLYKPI

| Variant | effect of a mutation on the interaction |
| --- | --- |
| A162V | with no effect |

Variants of: B6
Details: with pf21a_human PHF21A

| Variant | effect of a mutation on the interaction |
| --- | --- |
| A162V | with no effect |

Variants of: B7
Details: with dhb14_human HSD17B14, Q9BPX1
dhb14_human HSD17B14, Q9BPX1, sequence (Q9BPX1 whole entry): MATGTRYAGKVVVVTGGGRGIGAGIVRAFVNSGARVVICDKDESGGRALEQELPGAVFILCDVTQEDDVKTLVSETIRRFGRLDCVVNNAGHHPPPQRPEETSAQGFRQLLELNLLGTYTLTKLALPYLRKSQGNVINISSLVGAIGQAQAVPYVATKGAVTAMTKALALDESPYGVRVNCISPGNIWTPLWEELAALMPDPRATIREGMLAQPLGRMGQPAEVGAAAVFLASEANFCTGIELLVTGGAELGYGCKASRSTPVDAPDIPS

| Variant | effect of a mutation on the interaction |
| --- | --- |
| S14L | with no effect |

Variants of: B7
Details: with tri23_human TRIM23, P36406
tri23_human TRIM23, P36406, sequence (P36406 whole entry): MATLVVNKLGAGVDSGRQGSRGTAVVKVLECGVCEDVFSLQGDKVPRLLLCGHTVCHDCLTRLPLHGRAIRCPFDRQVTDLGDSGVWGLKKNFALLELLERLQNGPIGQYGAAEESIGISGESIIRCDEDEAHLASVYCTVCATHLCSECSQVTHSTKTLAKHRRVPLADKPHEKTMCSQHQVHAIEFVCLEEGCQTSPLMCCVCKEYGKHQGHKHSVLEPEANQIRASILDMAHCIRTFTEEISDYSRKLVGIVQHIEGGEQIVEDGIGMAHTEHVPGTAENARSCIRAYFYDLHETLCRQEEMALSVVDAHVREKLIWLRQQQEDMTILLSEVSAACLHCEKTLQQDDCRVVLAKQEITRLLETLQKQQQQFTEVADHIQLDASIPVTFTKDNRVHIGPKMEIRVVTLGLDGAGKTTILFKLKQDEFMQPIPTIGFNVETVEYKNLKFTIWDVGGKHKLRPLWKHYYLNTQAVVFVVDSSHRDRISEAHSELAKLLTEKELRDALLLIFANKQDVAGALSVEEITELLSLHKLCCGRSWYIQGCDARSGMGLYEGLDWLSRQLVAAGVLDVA

| Variant | effect of a mutation on the interaction |
| --- | --- |
| S14L | with no effect |

Variants of: B7
Details: with pdli7_human PDLIM7, Q9NR12
pdli7_human PDLIM7, Q9NR12, sequence (Q9NR12 whole entry): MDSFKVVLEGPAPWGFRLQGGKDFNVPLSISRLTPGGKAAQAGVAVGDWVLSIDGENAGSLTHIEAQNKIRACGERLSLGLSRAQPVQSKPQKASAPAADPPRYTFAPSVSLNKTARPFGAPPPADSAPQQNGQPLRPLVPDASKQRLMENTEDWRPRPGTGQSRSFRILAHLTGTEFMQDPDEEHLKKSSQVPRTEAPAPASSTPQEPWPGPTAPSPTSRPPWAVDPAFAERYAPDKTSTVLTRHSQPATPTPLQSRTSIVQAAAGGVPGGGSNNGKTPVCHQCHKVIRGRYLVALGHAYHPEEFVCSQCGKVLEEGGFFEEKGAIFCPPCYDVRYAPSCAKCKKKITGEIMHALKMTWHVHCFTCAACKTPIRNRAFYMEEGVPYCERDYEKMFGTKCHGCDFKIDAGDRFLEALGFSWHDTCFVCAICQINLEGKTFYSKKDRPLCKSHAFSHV

| Variant | effect of a mutation on the interaction |
| --- | --- |
| S14L | with no effect |

Variants of: B8
Details: with gors2_human GORASP2, Q9H8Y8

| Variant | effect of a mutation on the interaction |
| --- | --- |
| E43D | with no effect |
| D183H | with no effect |

Variants of: B8
Details: with prps2_human PRPS2, P11908

| Variant | effect of a mutation on the interaction |
| --- | --- |
| E43D | disrupting interaction strength |
| D183H | disrupting interaction strength |

Variants of: B8
Details: with gors2_human GORASP2, Q9H8Y8
Remark: another data set of the same source

| Variant | effect of a mutation on the interaction |
| --- | --- |
| D203H | with no effect |

Variants of: B8
Details: with prps2_human PRPS2, P11908
Remark: another data set of the same source

| Variant | effect of a mutation on the interaction |
| --- | --- |
| D203H | disrupting interaction strength |
